Assay results as given in patent US20190314417A1, “IMMUNOSUPPRESSIVE MESENCHYMAL CELLS AND METHODS FOR FORMING SAME” (The Trustees of Columbia University In The City of New York, priority 2016, published 2019).
Structures can show the parent of a compound that is named as a salt.

Legend:
Type in all cases: cell-based, human
GLUT1 = assay: Hypoxia mimetic titration: GLUT1 in MSCs; details: different concentrations, FIG. 24
Experimental: Studies were carried out to determine the effect of hypoxia mimicking agents CoCl2 and DFO on MSCs (FIG. 24).

[1] = tested on: CD4+ and CD8+ T-cell division; assay: Lactic acid titration: T-cell division in response to Concanavalin A; details: ConA 5 μg/mL, Day 3
Experimental: PBMCs were thawed, as previously described, and stained in HEPES buffered saline at 37° C. for 30 minutes with pHrodo® Red AM (Thermo Fisher) as per manufacturer's instructions (1000× dilution of dye). […] Cells were resuspended in these new media and incubated at 37° C. for 30 minutes. Immediately prior to each flow cytometry reading, each sample was diluted 1:9 with BD Stain Buffer and mixed well. This neutralized external pH and diluted media components without permitting time for intracellular lactate to be exported. […] Cells were plated in 96-well U-bottom plates at 200 000 cells per well. ConA was added to be 5 μg/mL, and PBMCs were analyzed by flow cytometry on Day 3.

T-cells = assay: Lactic acid titration: intracellular pH and scatter of T-cells (pHrodo Red AM); details: fresh complete AIM-V media, 30 minutes
IDO [2] = assay: IFN-γ titration: IDO expression in MSCs by flow cytometry; details: 48 hours of exposure
Experimental: (§1) Titration studies were carried out to determine whether IFN-γ at different concentrations or for different time periods had differential effects on MSC expression of IDO and/or PD-L1 (FIGS. 22 & 23). […] Thus, the IFN-γ dose could be used in a range of 0.1 ng/mL to 100 ng/mL for future animal and human studies, while still reproducing the same beneficial phenotype, with the lower end of that range more likely to mimic physiologic conditions in humans. […] Therefore, priming of MSCs may be carried out for less than 48 hours to achieve biological effects.

IDO [3] = assay: Onset kinetics of IDO expression in MSCs exposed to IFN-γ; details: 10 ng/mL IFN-γ
Experimental: as §1

PD-L1 = assay: Onset kinetics of PD-L1 expression in MSCs exposed to IFN-γ; details: 10 ng/mL IFN-γ
Experimental: as §1

[Cl][Co][Cl] [CoCl2, cobalt chloride]
GLUT1 upregulation in MSCs (GLUT1): able to upregulate GLUT 1

CC(=O)N(O)CCCCCNC(=O)CCC(=O)N(O)CCCCCNC(=O)CCC(=O)N(O)CCCCCN [DFO, deferoxamine mesylate/desferrioxamine]
GLUT1 upregulation in MSCs (GLUT1): able to upregulate GLUT 1

C[C@H](O)C(=O)O [lactic acid, L-lactic acid]
T-cell division at lactate 15 mM ([1]; lactate concentration of 15 mM): almost completely eliminated | T-cell division, % of the maximum rate ([1]; lactic acid concentration not given): 30-45% | extracellular lactic acid level at which drop in T-cell pHi started to become pronounced (T-cells): 15 mM

B1: IFN-γ: pro-inflammatory cytokine (Peprotech) used to prime MSCs (protein, UniProt P01579 24-161, looked up)
Interferon gamma: QDPYVKEAENLKKYFNAGHSDVADNGTLFLGILKNWKEESDRKIMQSQIVSFYFKLFKNFKDDQSIQKSVETIKEDMNVKFFNSNKKKRDDFEKLTNYSVTDLNVQRKAIHELIQVMAELSPAAKTGKRKRSQMLFRG
IDO induction at 0.1 ng/mL (IDO [2]; 0.1 ng/mL): significant induction | IFN-γ concentration required for maximum IDO induction (IDO [2]): at least 1 ng/mL | exposure time after which IDO is already upregulated (IDO [3]): 6 h | exposure time required for maximum IDO expression (IDO [3]): 48 h | exposure time after which PD-L1 is already upregulated (PD-L1): 6 h | exposure time required for maximum PD-L1 expression (PD-L1): 48 h
